The labels stand for the following.
B2: α‐actinin‐2 rod domain (domain or fragment, UniProt P35609 274-746, looked up)
chain: AVNQENERLMEEYERLASELLEWIRRTIPWLENRTPEKTMQAMQKKLEDFRDYRRKHKPPKVQEKCQLEINFNTLQTKLRISNRPAFMPSEGKMVSDIAGAWQRLEQAEKGYEEWLLNEIRRLERLEHLAEKFRQKASTHETWAYGKEQILLQKDYESASLTEVRALLRKHEAFESDLAAHQDRVEQIAAIAQELNELDYHDAVNVNDRCQKICDQWDRLGTLTQKRREALERMEKLLETIDQLHLEFAKRAAPFNNWMEGAMEDLQDMFIVHSIEEIQSLITAHEQFKATLPEADGERQSIMAIQNEVEKVIQSYNIRISSSNPYSTVTMDELRTKWDKVKQLVPIRDQSLQEELARQHANERLRRQFAAQANAIGPWIQNKMEEIARSSIQITGALEDQMNQLKQYEHNIINYKNNIDKLEGDHQLIQEALVFDNKHTNYTMEHIRVGWELLLTTIARTINEVETQILTRD
notes: α-actinin-2, rod domain, residues 274-746; Detailed purification protocols are to be published elsewhere (Mlynek et al., in preparation); PDB 4D1E is the longer α-actinin-2 dimer, of which the rod domain is a stretch; also called rod domain of α‐actinin‐2

Series [1] concerns the target B2. The experiment in a line: cell-based or functional assay.
In series [2] the target is B2. The experiment in a line: SEC-MALS; Superdex‐200 10/300 Increase; 20 mM Tris–HCl pH 7.5, 100 mM NaCl, 50 mM arginine, 50 mM glutamic acid, 0.5 mM PMSF, 1 mM EDTA, 1 mM β‐mercaptoethanol; 100 μl injected at 2-4 mg/ml; 20°C; 0.5 ml/min. To be noted: both partners purified. (In general: Size exclusion chromatography separates by hydrodynamic size, large species first.)
Series [3] deals with the molecule itself. The series is described as above.

B1: Δ91‐FATZ‐1 (domain or fragment, UniProt Q9NP98 92-299, looked up)
chain: PTVGGQLGTAGQGFSYSKSNGRGGSQAGGSGSAGQYGSDQQHHLGSGSGAGGTGGPAGQAGRGGAAGTAGVGETGSGDQAGGEGKHITVFKTYISPWERAMGVDPQQKMELGIDLLAYGAKAELPKYKSFNRTAMPYGGYEKASKRMTFQMPKFDLGPLLSEPLVLYNQNLSNRPSFNRTPIPWLSSGEPVDYNVDIGIPLDGETEEL
notes: FATZ-1 (calsarcin-2/myozenin-1) with a deletion of the 91 N-terminal residues; Detailed purification protocols are to be published elsewhere (Mlynek et al., in preparation); also called FATZ‐1 lacking the first 91 residues; calsarcin‐2
Turning to B1, the “ΔGu°′ of the complex against ΔGu°′ of the rod domain alone, thermal unfolding (NanoDSF)” value in series [1] is roughly 2 fold. Also, the “stoichiometry N” value in series [2] is 2 Δ91‐FATZ‐1 molecules per rod domain dimer.
As for B2, in series [3], the “stoichiometry N” value was 2.

One may read the stoichiometry N as the number of molecules, sites or subunits per partner or assembly.

The values are drawn from publication PMC7737771, “In‐depth interrogation of protein thermal unfolding data with MoltenProt” (Protein Science : A Publication of the Protein Society, 2020).
